Results on one molecule are retold here after patent US11142588B2, “Polypeptides which bind C-X-C chemokine receptor type 4 (CXCR4) and methods of treating or reducing the risk of fibrosis and cancer” (AdAlta Limited, priority 2015, dated 2021).

What all share (format): cell-based
The target in assay [1] is T1, CXCR4 (Homo sapiens, UniProt P61073). Description: HitHunter cAMP assay in antagonist mode. Conditions: SDF-1 at EC80, forskolin 15 μM, read-out: cAMP inhibition IC50.
Source text: Hit Hunter® cAMP assays monitor the activation of a GPCR via an inhibitory regulative G-protein (Gi) and a stimulative regulative G-protein (Gs) secondary messenger signaling in a homogenous, non-imaging assay format using a technology developed by DiscoveRx called Enzyme Fragment Complementation (EFC) with β-galactosidase (β-Gal) as the functional reporter. The enzyme is split into two complementary portions: EA for Enzyme Acceptor and ED for Enzyme Donor. ED is fused to cAMP and in the assay competes with cAMP generated by cells for binding to a cAMP-specific antibody. Active β-Gal is formed by complementation of exogenous EA to any unbound ED-cAMP.
cAMP Hunter cell lines were expanded from freezer stocks according to standard procedures. The cells were then seeded in a total volume of 20 μL into white walled, 384-well microplates and incubated at 37° C. for the appropriate time prior to testing. cAMP modulation was determined using the DiscoveRx HitHunter cAMP XS+ assay according to manufacturer's instructions. […]
After appropriate compound incubation, assay signal was generated through incubation with 20 μL cAMP XS+ ED/CL lysis cocktail for one hour followed by incubation with 20 μL cAMP XS+ EA reagent for three hours at room temperature. Microplates were read following signal generation with a PerkinElmer Envision™ instrument for chemiluminescent signal detection.
The target of the next assay is T2, CCR4 (Homo sapiens, UniProt P51679).
T2 sequence (P51679 1-360): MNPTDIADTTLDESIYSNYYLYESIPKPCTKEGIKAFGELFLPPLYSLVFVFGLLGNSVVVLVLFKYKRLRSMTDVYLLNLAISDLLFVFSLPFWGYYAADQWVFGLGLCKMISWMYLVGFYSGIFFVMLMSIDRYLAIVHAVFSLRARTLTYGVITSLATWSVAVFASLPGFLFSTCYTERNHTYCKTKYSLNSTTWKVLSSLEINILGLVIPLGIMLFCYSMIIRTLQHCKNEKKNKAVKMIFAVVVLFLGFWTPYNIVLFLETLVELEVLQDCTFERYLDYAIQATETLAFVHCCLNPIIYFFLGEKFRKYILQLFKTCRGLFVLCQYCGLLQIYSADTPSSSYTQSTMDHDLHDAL
The experiment in a line: PathHunter (DiscoverX) β-arrestin assay, CCR4. How it is done:
(FIG. 9) The PathHunter® β-Arrestin assay (DiscoveRx) was performed according to the manufacturer's protocol. Cells were seeded into white walled, 384-well tissue culture-treated microplates (Corning) and normalized at 5,000 cells (or 10,000 cells for CXCR4) in a total volume of […]. Cell growth was at 37° C. (5% CO2, 95% relative humidity). […] Agonists were then added at the EC80 concentration and incubation was continued at 37° C. for 90 min (or 180 min for CCR1). Assay signal was generated through a single addition of 15 μL (50% v/v) of PathHunter Detection reagent cocktail, followed by 1 h incubation at room temperature. Microplates were read following signal generation with a PerkinElmer Envision instrument for chemiluminescent signal detection of relative light units (RLU).

In assay [2] the target is T1, CXCR4. The experiment in a line: β-arrestin BRET assay, antagonist mode with 100 nM SDF-1. On the set-up: expressed in transfected cells; host or cells: HEK293FT. The conditions noted are these: read-out: IC50 (nM) in β-Arrestin BRET assay (Antagonist mode in the presence of 100 nM SDF-1). The essentials: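 Ten concentrations of i-body with 100 nM SDF-1 were applied to transiently transfected HEK293FT cells carrying CXCR4/Rluc8 donor and β-arrestin2/Venus acceptor. Emissions at 400-475 and 520-540 nm were read at 37 °C, and the vehicle-subtracted ratio gave the BRET signal (four independent duplicate experiments).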
(In general: BRET reads energy transfer from a luciferase to a nearby fluorophore.)

T1 sequence (P61073 whole entry): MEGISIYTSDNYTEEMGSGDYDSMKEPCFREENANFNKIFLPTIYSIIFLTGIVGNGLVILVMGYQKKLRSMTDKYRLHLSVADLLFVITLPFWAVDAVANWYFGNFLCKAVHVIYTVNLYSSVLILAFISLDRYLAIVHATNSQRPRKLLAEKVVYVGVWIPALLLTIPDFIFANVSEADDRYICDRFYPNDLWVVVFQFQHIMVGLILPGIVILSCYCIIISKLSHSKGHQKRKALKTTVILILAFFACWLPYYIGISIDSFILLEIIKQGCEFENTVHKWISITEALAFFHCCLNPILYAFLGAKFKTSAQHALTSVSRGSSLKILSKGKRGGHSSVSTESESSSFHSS

B1: AM3-523: affinity matured CXCR4 i-body, SEQ ID NO: 56 (protein)
chain: LQVDIVPSQGEISVGESKFFLCQVAGSGSHMRISWFSPNGEKLTPNQQRISVVWNDDSSSTLTIYNANIDDAGIYKCVVWVGGYRHRALVLGEATVNVKIFQ
modifications: protein sequence encoding AM3-523
For orientation: IC50 means the concentration that inhibits the measured activity by half. For B1, the 50% inhibitory concentration (IC50) with CXCR4 [1] stood at 0.225 µM; with CXCR4 [2], 12700 nM. For the same molecule, the CCR4 activity with CCR4 is reported as −2%.
